Test results: the DeepSol protein solubility set

Assay: soluble on expression in E. coli; label from the status in PepcDB or PDB records

Sequence	soluble on expression in E. coli
MSLNYNAPHRHAVIELSQSAVVHNLKVIKENTHAKEIMAVLKANAFSHGLPEMASLSITAGATRFGMAMLDEALILRDLGYIQPIDVLGLTDPRYARLAAERNITLAFSTKESIKAAAEQLAGTGLTLKVSLPVDTGLNRIGFKSREDLVAAIQEVSAQDTLIFQSMWTHFATADTPNVDYVDFQISEWQRLTHDLPVEPNEKHFANTGIATWYPEKINTDIVRLGIGLFGINGSVPIMSMPFELIPALSLKAKVVNSKPLKKGDAVGYGAEYHAPNDGYLITIPIGHSDGYPFNGSGMRALVADGQIGHIVGGVAMDQSMILVTNPVAVGTTVTLIGRVGDQSITMQDLAEHTQSSIVALMNDFAPRLQRIIVSEGHHHHHH	not soluble
MVLQHQFDGLLEVMPENPRKKLRFTSRHIAAVNRYLDDKYFDPKEEKWSNLHPKYRIVLENLIRQTGPRLSPQVTLFLPNTFNGAFAPRQPFGLPSYFYHTCKKAESITQATHAMNQEYTVKMKNLNDQIDAYIYDTHLDILKVTEKRGDYLKNIPHDFGEHPDNPRNGQDNPKIELEHREILWNGLKVVLENGRFYETSTTETNVVEIFLNDELLNDKLYILKAEFFAAFYASEEATQIEVMVLFDNYFMAGGTIQYGEKLVCHLQEIPGTYGTTSFSCSSDFKSMVRKCGLPPIPRIGSPWNSDLMESIAELQQAIIRLENRVYDKDYIGKYTHENGGFIEAYCASLKNLSNTLYLLEEGTIELPAHSKNWTPREKLAYLSNFAPEKEMTSCEIGKPCASFKMIIGLAKSLRKNPYNFSFSGELLAEFSFQIRMAMLSMYLVLERNLPDAPHDNSQFVMTTLSHFRRLYIDNVKKIYQIFPHFPVEMRPVVLDVMCQRATPANYQEILEIYSYEPDMVTKMVQKYPYILLFTPHVTRPPIKLIRDFSEYMEKEMMSSEQAQMSRVDVIVLEENEPDGQESGVDYILARSNKRARVDFEKLDLLLESIMPEEAPARDYRKNTSEGHLAEIFGPTNNEEAEEEPSLPSCSYSTPKRVNRAKPALDSPSGNLRTANKDQVDLLDNVMQRSEKRQWKM	not soluble
MGSSHHHHHHSSGLVPRGSHGLVPRGSHMKKLKLHGFNNLTKSLSFCIYDICYAKTAEERDGYIAYIDELYNANRLTEILSETCSIIGANILNIARQDYEPQGASVTILVSEEPVDPKLIDKTEHPGPLPETVVAHLDKSHICVHTYPESHPEGGLCTFRADIEVSTCGVISPLKALNYLIHQLESDIVTIDYRVRGFTRDINGMKHFIDHEINSIQNFMSDDMKALYDMVDVNVYQENIFHTKMLLKEFDLKHYMFHTKPEDLTDSERQEITAALWKEMREIYYGRNMPAV	soluble
MSLDQAAVCLTICRINQLLSPSLLLKWWKADPSMSLTSPVLQTVTRDQIKAAALKNEIEQFYPKLPRVLAAYREQGINTIPISSKQYPFWLKSIYDPPAVLFAKGDMTLLSKGRKIGIVGTRNPTAYGKQVVNHLTKEICRKGWVIVSGLASGIDGMSHAASIKAKGRTIGVIAGGFQHIYPRENLQLADHMAKHHILLSEHPPETKPQKWHFPMRNRIISGLSEGVIVVQGKEKSGSLITAYQALEQGREVFAVPGSLFDPYAGGPIKLIQQGAKAIWSAEDIFEELPERNVQYTEPFEGHHHHHH	not soluble
MRRAAIFFFYDERGQVDDYIFYLLEKLRPFVETIIFVSNGEISQSSEASLRSTVDETIIRENTGFDVGAYRDGLEFIGYDKLGDYDEILLLNHTFYGPVFPFSEMFSEMERRACDFWGISDHKEVSPNPFTGAGVLPRHLNSHFIAVRKAMLESIAFRNYWERMPKITDYAESVLLHESRFTGFFENLGYKSETYLDSDKYNSAYPVMIDVDQIYNDRSPILKRRLFFNDPTFLDKNAVDLPRALRVLKETSDYDLNLIWRNVLRSSDLRTLNTNAALMSVLPDKRIKGDGAAADYGKIAVCAHIYYTDMLDEILGLTGNIPVPYDFIATTNTPEKKAEIETALANRPGVKNVIVRVVEQNRGRDMSSLFISLRDLLVDDRYDLVCRLHTKKSPQVQSSMGNLFKRHMVDNLLNSRGYVHNVLDMFHDNPSVGLAIPPIFHISYPTMGFSWFANKPKVEETARLLNINVKFDENTPVAAYGTMFWFRPRALRKMFEHKWKWEEFNAEPDHVDGGFAHALERLIAYAVQNAGYTTQHIMCAHQAEHNYTMLEFKLQKLASFMPSGDFPLQCHMVSEWRKGGYPLGSHVSATPAPMPTSVKHSLAELNLAVKSSLRFRAPILFRALRPIYRGTRAILKPNSRRSGGLEHHHHHH	soluble
MGSDKIHHHHHHMKKAMVIINPTSGGEKALDYKEKLENKAKEYFEYVETKITEKALDATHFAEEASREQYDAVVVFGGDGTVNEVISGIDERDYIPKLGIIPGGTGNLITKLLEINQDIDGAIDELDFDLTNKIDIGKANDNYFGYIFSIGSLPEAIHNVEIEDKTKFGILTYAVNTMKSVMTDQVFNIKVETENGNYVGEASHVLVLLTNYFADKKIFEENKDGYANILILKDASIFSKLSVIPDLLKGDVVANDNIEYIKARNIKISSDSELESDVDGDKSDNLPVEIKVLAQRVEVFSKPKED	not soluble
MDADEGQDMSQVSGKESPPVSDTPDEGDEPMPIPEDLSTTSGGQQSSKSDRVVASNVKVETQSDEENGRACEMNGEECAEDLRMLDASGEKMNGSHRDQGSSALSGVGGIRLPNGKLKCDICGIICIGPNVLMVHKRSHTGERPFQCNQCGASFTQKGNLLRHIKLHSGEKPFKCHLCNYACRRRDALTGHLRTHSVIKEETNHSEMAEDLCKIGSERSLVLDRLASNVAKRKSSMPQKFLGDKGLSDTPYDSSASYEKENEMMKSHVMDQAINNAINYLGAESLRPLVQTPPGGSEVVPVISPMYQLHKPLAEGTPRSNHSAQDSAVENLLLLSKAKLVPSEREASPSNSCQDSTDTESNNEEQRSGLIYLTNHIAPHARNGLSLKEEHRAYDLLRAASENSQDALRVVSTSGEQMKVYKCEHCRVLFLDHVMYTIHMGCHGFRDPFECNMCGYHSQDRYEFSSHITRGEHRFHMS	not soluble
MGSDKIHHHHHHMFKSTDNYIASNELTLAVNAAIALEKPLLIKGEPGTGKTQLAEELARSLNCKLYQWHIKSTTKAQQGLYEYDAVSRLRDSQLGDARVHDIGNYIVKGKLWQAFEEDQRSILLIDEIDKADIEFPNDLLQELDKMEFYVYETQQVIKAKQRPIIIITSNNEKELPDAFLRRCFFHYIKFPTKDEMAKIIDVHHPNVKQDLLQQALEVFFDLRDVNGIKKKPSTSELIDWLKLLISDDISQDTLLDKKSDIIPLFGALLKNEQDVSLIEKLAFMSRRNR	not soluble
GSMDYKDDDDKKTNWLKRIYRVRPCVKCKVAPRDWKVKNKHLRIFNMCKTCFNNSIDIGDDTYHGHVDWLMYADSKEISNT	soluble
MGSDKIHHHHHHMEYEQLLQSELGELEIIREELQNKEYRGMIVKTAKDGTTIRTRLAKKTDKKTGYFVAFWEKDELGKNCPFDENDSADFLCIVVIDGDLNGLFVFPRQCLIEKGILTSEVGIGKMAARFYPSWCQDLNKTAEKTQAWQQVYFKNYSIRKEDH	not soluble
MGSDKIHHHHHHMLIEIPNVFSKQEVNQLREQLDARTWIDGNQTSGMMASTRKRNQQLDKDDPVALQIGELIMARLLAHPLFVSAALPLQFYPPLFNRYQGGDTFGYHIDNAIRSTSDGMVRTDLSATLFLSELNAYEGGELVIQDTYGQQSIKLAAGSLVLYPSTSLHQVTPVTSGERTSAFMWLQSMVRDEGQRRLLFQLDQSIQTLTAQQAAEQELFNLTGVYHNLLRRWSEL	not soluble
MTSEQNIQTFRDFLTQYNLVAEQCFNSCVNEFGSRTVSGKEESCANNCLDKFLKMTQRVSQRFQEHQLLNAQANGAAIKVENGGKINKIQ	not soluble
MSLMTSKTSLALLCDFYEFTMSQGYFKNNKKDQICYFDIFFRKIPDSGSFAIFAGLEDILDFVENLSFDAEDIEFLRKQGIFDTEFLDFLANFKFKGEIYAMREGEVIFPNEPLLCIKATTIEAQLLETFLLLSLNHQSLIATKTNRIVRAAKDSKILEFGSRRAQGSEAALKGARAAFIGGCIGSACTLAGKIYNIPINGTMAHSWVQMFENELEAFKAYVKIYPKNPVFLIDTYDCLNSGLKNAIKVFKEFGIQEGGVRIDSGNLLELSLKIRQELDQAGLQKCKIIVSNALDEWSIKKLKEQNAPIDIFGVGERLITASSDPIFSCVYKLAALEDQGIKPKIKISENNEKSTLPHFKKLFRVYDKNTQKILFDELYVFDENPNQDENLERKELLELVYKEKRLLKKSSLNTIQDYTKEQISKLDESFLDLDRFVKFEVKLSPKLQNITEDLLKTRFEGHHHHHH	soluble
RLIVGKHHWKIEKQPEWYVKAVRKTIAALPSGYAEAADWLDVTENALFNRLRADGDQIFPLGWAMVLQRAGGTHFIADAVAQSANGVFVSLPDVEDVDNADINQRLLEVIEQIGSYSKQIRSAIEDGVVEPHEKTAINDELYLSISKLQEHAALVYKIFCISESNDARECAAPGVVASIASGCGETNA	soluble
MKAHHILKVTKQYNPTEDLEFNPDLDGELVAGADNLPSVEIQVEKIADRQRQITARVQIPQPVEQVWQVLTNYEALADFIPNLAKSSLLEHPNGGIRLEQVGSQRLLNFKFCARVVLDLEEYFPKEINFQMVEGDFKGFSGNWCLQPYALGNVIGTDLCYTIQVWPKLTMPITIIERRLSQDLRSNLLAIYQRVECLANQSLLEHHHHHH	soluble
MFRNAAELVAQAKEQNVKIAEIMIQCEMETRSISREEVIAGMEKNLVVMEQAVERGIRGVKSPTGLTGGDAVKVQAYMKSGKGLSGDTILDAVSKAVATNEVNAAMGIICATPTAGSAGTVPGVLFALREKLQPTREEMIEFLFTAGAFGMVVANNACISGAAGGCQAEVGSASGMAAAAAVEMAGGTQEQAATAMAISLKNMLGLVCDPVAGLVEVPCVKRNAAGAANAMISADLALAGVTSTIPCDEVIEAMFRIGQTMPVALRETAEGGLAATPTGRRLQEEIFGKTNN	not soluble
MNPLKKIKDWIAEGKAGWHLAGGRSSLKQGKYKEALKEFRKALKARPNNPEILHYNAITLLKLKRPEKALECYEKILKNNPKLAEAWNNKGLVLKELGRYDEALECYEKALKINPKYAGAWNNKALVLKELGRYDEALECYEKALQINPKLADAWYNKGSVLIYLKKYKKALKCFEKAIELNPKNYRAWGTKGITLHNLKIYEEALKCYDKVLQLNPQDDKAWNNKGLVFNELGRYDESLECYEKALQINPKLAEAWNNKGVVLSELGRYEEALECYEKALEIDPEDDKTWNNKGLVLEELGKYKDALECFQKALEINPEFADAWKWKGIILEDLKKPEESLKCYKKALKLNPPKQNTMVHARKNTTKTRQTQRSTKML	not soluble
MIYFIRKKKWLKQLEKGEAMKYAILIGDGMADYPIEKLGNRTILQAARTPAMDSIAARGRAGLAKTVPDSFPPGSDVANMSILGYDPATYYSGRAPLEAASMGVALAADDVAFRCNLITTEHGMIKDYSAGHISSDEAEILIDTLDYELSTENIRFYPGISYRHLIVAGNNLGAETECTPPHDITGEKIDKYLPRGKDGEFFSELIEASKVVLELHPVNLKRVEEGKNPANSIWVWGQGYAPKFTAFMKLYGKKGAVISAVDLLKGIGIYAGLDVIEVHGATGYLDTNYEGKVRAAIEALKTRDLVFVHVEAPDEAGHEGSIEKKLKAVEDFDSRIVAPILEYAENSDEPFTILVLPDHPTPISVKTHTRDPIPFAIYRTDKPETDNVEAFDEESVKNGSMGLVKASDLIGILIKS	not soluble
